The record followed here is patent US20260218140.

The series concerns the target T1, 5-270 TNA polymerase (synthetic construct (chimera of Thermococcus/Pyrococcus B-family polymerases)) (UniProt P56689).
T1 sequence: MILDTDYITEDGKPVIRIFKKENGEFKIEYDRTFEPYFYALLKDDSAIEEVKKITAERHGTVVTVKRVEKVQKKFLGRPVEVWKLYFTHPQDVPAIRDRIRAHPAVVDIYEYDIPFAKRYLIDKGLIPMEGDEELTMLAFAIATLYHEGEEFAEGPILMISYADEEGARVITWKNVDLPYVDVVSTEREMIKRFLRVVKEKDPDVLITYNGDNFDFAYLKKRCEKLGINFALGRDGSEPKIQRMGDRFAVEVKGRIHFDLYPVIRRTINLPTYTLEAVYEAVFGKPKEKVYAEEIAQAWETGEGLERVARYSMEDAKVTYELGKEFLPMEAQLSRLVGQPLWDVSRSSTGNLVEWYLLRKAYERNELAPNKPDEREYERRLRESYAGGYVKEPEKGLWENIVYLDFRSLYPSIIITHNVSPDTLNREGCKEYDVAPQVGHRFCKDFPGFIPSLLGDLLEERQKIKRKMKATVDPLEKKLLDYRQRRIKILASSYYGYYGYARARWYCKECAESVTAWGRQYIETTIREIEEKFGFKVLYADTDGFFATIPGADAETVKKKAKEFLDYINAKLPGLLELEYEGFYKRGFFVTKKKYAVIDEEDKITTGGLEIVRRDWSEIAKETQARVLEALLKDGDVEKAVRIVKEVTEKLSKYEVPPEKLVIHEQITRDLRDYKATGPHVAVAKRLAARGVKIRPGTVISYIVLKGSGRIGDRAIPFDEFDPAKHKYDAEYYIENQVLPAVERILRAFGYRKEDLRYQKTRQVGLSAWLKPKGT
To be noted: TNA primer extension; ~2-fold figure is from text on the clone screen.

Sequence “GTCCCCTTGGGGATACCACC / TCGTTCTCGGACGGAGAGATATTGAANGGTGGTATCCCCAAGGGGAC [PBS8 primer / L30.5 random library template]” registered a binding signal (fold vs Kod-RSGA) of 2.
